# Data: patent publication US11998620B2, “PSMA targeted compounds and uses thereof” (CASE WESTERN RESERVE UNIVERSITY, priority 2021, dated 2024)
# Numbered stars: 1 amine (or outer) side, 2 acyl side, 3 side chain; on linkers, the order of the positions; unused ones are H or OH. Square brackets hold non-standard residues; d marks the D form. Peptide text beside a SMILES is read from it. * marks the point of attachment. DOTA = O=C(O)CN1CCN(CC(=O)O)CCN(CC(=O)*)CCN(CC(=O)O)CC1; γGlu = O=C(O)[CH](CCC(=O)[*:2])N[*:1]; X3 = O=C(C1CCC(CN[*:1])CC1)[*:2]; CO = O=C([*:1])[*:2]; Ahx = NCCCCCC(=O)O
# Assays:
# PSMA = biological target: T1, PSMA (Homo sapiens, UniProt Q04609); experiment: Competition binding assay using [3H]-ZJ24 with PC3pip cells; settings: approximately, compared to PSMA-11, PSMA I&T and ZJ24 ligands, FIG. 3
# T1 construct: expressed in transfected cells; host or cells: PC3pip cells
# T1 sequence (Q04609 whole entry): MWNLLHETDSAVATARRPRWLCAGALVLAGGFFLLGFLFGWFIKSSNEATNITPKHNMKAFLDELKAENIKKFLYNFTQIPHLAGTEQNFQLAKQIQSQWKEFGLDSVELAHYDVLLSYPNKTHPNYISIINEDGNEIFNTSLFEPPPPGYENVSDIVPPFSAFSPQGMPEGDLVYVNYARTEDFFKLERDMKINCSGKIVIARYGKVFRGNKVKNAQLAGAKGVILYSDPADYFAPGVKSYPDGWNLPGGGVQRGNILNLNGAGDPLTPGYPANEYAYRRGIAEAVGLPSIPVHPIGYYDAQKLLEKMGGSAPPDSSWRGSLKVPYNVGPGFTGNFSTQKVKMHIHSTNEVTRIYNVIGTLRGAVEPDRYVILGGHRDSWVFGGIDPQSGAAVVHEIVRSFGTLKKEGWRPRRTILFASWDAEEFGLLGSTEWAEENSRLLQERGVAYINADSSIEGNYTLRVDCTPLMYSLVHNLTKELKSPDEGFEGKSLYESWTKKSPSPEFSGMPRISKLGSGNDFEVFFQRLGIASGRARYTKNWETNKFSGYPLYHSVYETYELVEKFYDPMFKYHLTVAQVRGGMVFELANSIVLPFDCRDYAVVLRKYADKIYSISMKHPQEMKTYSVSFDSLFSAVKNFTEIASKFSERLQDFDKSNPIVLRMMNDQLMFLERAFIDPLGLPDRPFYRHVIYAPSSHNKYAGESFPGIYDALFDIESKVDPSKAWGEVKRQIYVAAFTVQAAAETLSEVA
# Source text: We first conjugated a macrocyclic DOTA to our PSMA-1 ligand enabling us to label it with [^68Ga]. We then compared the macrocyclic-conjugated PSMA-1 ligand to PSMA-11 ligand, PSMA I&T ligand, and ZJ24 ligand in a competitive radio-binding assay using [^3H]-ZJ24 with PC3pip cells. FIG. 3 illustrates that the PSMA-1 ligand conjugated to DOTA, the PSMA-1 ligand has approximately 4-5 fold higher affinity for PSMA.
# [1] = Stability assay: incubation in plasma or PBS, HPLC; format: in vitro ADME; settings: 100% mouse plasma, PBS or 100% human plasma at 37° C., for 7 days
# Procedure: (§1) PSMA-1-DOTA was incubated in 100% mouse Plasma, PBS, or 100% human plasma at 37° C. […] And stability has been monitored and confirmed for at least 7 days frozen in isotonic sterile saline.
# [2] = Storage stability (lyophilized powder; frozen in saline); format: physicochemical
# Procedure: as §1
# [3] = In vivo PET imaging in healthy animals without tumor; design: species or system mice
# Procedure: We compared the [^68Ga]-PSMA-11 and the [^68Ga]-PSMA-1-DOTA ligand in healthy animals without tumor. Equal doses of radioactivity were injected into the same animal (a single animal was used to limit variability). We injected the [^68Ga]-PSMA-1-DOTA first to prevent blockade of its binding by the other ligand, waited 24 hours and then injected the other radiolabeled ligand.
# [4] = tested on: PSMA-expressing cancer tissue; experiment: Standard uptake values (SUVs) by PET and blood clearance, general statements; format: in vivo; settings: PET
# Procedure: The term “standardized uptake value (SUV)” refers to a measure of radioactivity in a specific area of interest relative to an idealized even distribution of radioactive material throughout the body. SUV is used historically by nuclear medicine professionals to distinguish between “normal” and “abnormal” levels of uptake. Preferably, uptake is measured by positron emission tomography (PET) imaging or other imaging modalities.
# The PSMA targeted compounds described herein include a PSMA ligand, e.g., PSMA-1, conjugated to a metal chelating agent or chelated metal nuclide. The PSMA targeted compounds described herein can selectively recognize PSMA-expressing tumors, cancer cells, and/or cancer neovasculature in vivo and be used to deliver at least one chelated metal nuclide, such as radionuclide, to the PSMA-expressing tumors, cancer cells, and/or cancer neovasculature to treat and/or detect the PSMA-expressing tumors, cancer cells, and/or cancer neovasculature in a subject. The PSMA ligand can target and/or increase the uptake of the metal chelating agent or chelated metal nuclide in PSMA expressing cancer cells compared to untargeted metal chelated agents or chelated metal nuclides administered to a subject and decrease non-PSMA target toxicity of the metal nuclide administered (e.g., systemically) to a subject.
# [5] = tested on: PC3pip tumors that overexpress PSMA; experiment: In vivo PET imaging in animals harboring PC3pip tumors
# Source text: We also made a similar comparison using animals harboring PC3pip tumors that overexpress PSMA.
# [6] = PC3pip tumor bearing animals, PET
compound,measurement,setting,value
NC(=O)C(CCCCNC(=O)CN1CCN(CC(=O)O)CCN(CC(=O)O)CCN(CC(=O)O)CC1)NC(=O)C(CCC(=O)O)NC(=O)C(CCC(=O)O)NC(=O)C(CCC(=O)O)NC(=O)CCCCCNC(=O)C1CCC(CNC(=O)CCC(NC(=O)NC(CCC(=O)O)C(=O)O)C(=O)O)CC1 (stereo not shown) [PSMA-1-DOTA] ({Glu-CO-γGlu}-[X3][Ahx]EEEK(DOTA)-NH2; configuration not given here),higher affinity for PSMA,PSMA,4-5 fold
same,degradation/purity by HPLC,[1],No decline in the product
same,stability frozen in isotonic sterile saline,[2]; frozen,at least 7 days
same,stability as a lyophilized powder,[2]; long term storage,stability for long term storage
same,renal clearance,"[3]; mouse, in vivo",faster renal clearance
same,renal retention of the probe,"[3]; mouse, in vivo",less renal retention
same,"SUVs in salivary glands, lacrimal glands and non-PSMA expressing muscle tissue versus SUVs in PSMA-expressing cancer",[4],substantially lower SUVs
"NC(=O)[C@H](CCCCNC(=O)CN1CCN(CC(=O)O)CCN(CC(=O)O)CCN(CC(=O)O)CC1)NC(=O)[C@@H](CCC(=O)O)NC(=O)[C@@H](CCC(=O)O)NC(=O)[C@@H](CCC(=O)O)NC(=O)CCCCCNC(=O)C1CCC(CNC(=O)CC[C@H](NC(=O)N[C@@H](CCC(=O)O)C(=O)O)C(=O)O)CC1 (stereo partly shown) [[^68Ga]-PSMA-1-DOTA, metal not drawn] ({Glu-CO-γGlu}-[X3][Ahx][dE][dE][dE]K(DOTA)-NH2)",uptake in the salivary glands,"[3]; mouse, in vivo",none
same,kidney uptake,"[5]; mouse, in vivo",less kidney uptake
same,uptake into salivary glands,"[5]; mouse, in vivo",no uptake
NC(=O)C(CCCCNC(=O)CN1CCN(CC(=O)O)CCN(CC(=O)O)CCN(CC(=O)O)CC1)NC(=O)C(Cc1ccc(O)cc1)NC(=O)C(CCC(=O)O)NC(=O)C(CCC(=O)O)NC(=O)C(CCC(=O)O)NC(=O)CCCCCNC(=O)CCC(NC(=O)NC(CCC(=O)O)C(=O)O)C(=O)O (stereo not shown) [JB-1498] ({Glu-CO-γGlu-Ahx}-EEEYK(DOTA)-NH2; configuration not given here),"SUVs in salivary glands, lacrimal glands and non-PSMA expressing muscle tissue versus SUVs in PSMA-expressing cancer",[4],substantially lower SUVs
O=C([O-])CN(CCN(CC(=O)[O-])Cc1cc(CCC(=O)NCCCCCC(=O)NCCCC[C@H](NC(=O)N[C@@H](CCC(=O)O)C(=O)O)C(=O)O)ccc1[O-])Cc1cc(CCC(=O)O)ccc1[O-].[68Ga+3].[OH3+] [[^68Ga]-PSMA-11],uptake in the salivary glands,"[3]; healthy animals without tumor, equal doses of radioactivity, PET",significant uptake
same,kidney uptake,[5]; [6],significant uptake
same,uptake in the PC3pip tumor,[5]; [6],significant uptake
same,uptake into lacrimal glands,[5]; [6],significant uptake
same,uptake into salivary glands,[5]; [6],significant uptake
